Data taken from patent US20160311916A1 (ALLIGATOR BIOSCIENCE, published 2016).
Residue numbers refer to the chain shown, from its start.

B1: antibody 1134/1135 (antibody, V domains shown)
VH: EVQLLESGGGLVQPGGSLRLSCAASGFTFSSYAMSWVRQAPGKGLEWVSSIYSGGGGTSYADSVKGRFTISRDNSKNTLYLQMNSLRAEDTAVYYCARGPAYSSFFDYWGQGTLVTVSS
VL: not shown
notes: Re-cloned from scFv into full IgG format, made in 293 Freestyle cells
B2: antibody 1150/1151 (antibody, V domains shown)
VH: EVQLLESGGGLVQPGGSLRLSCAASGFTFSSYAMSWVRQAPGKGLEWVSGIGGSSSYTSYADSVKGRFTISRDNSKNTLYLQMNSLRAEDTAVYYCARYYSYHMDYWGQGTLVTVSS
VL: DIQMTQSPSSLSASVGDHVTITCRASQSISSYLNWYQQKPGKAPKLLIYAASSLQSGVPSRFSGSGSGTDFTLTISSLQPEDFATYYCQQYGSAPPTFGQGTKLEIK
B3: antibody 1132/1133 (antibody, V domains shown)
VH: B2 VH with G53S, S54Y, S55G, S56G, Y57G, S59Y, Y100V, S101N, Y102F, H103G
VL: B2 VL with H18R, S93R, A94N
notes: as for B1
B4: antibody 1107/1108 (antibody, V domains shown)
VH: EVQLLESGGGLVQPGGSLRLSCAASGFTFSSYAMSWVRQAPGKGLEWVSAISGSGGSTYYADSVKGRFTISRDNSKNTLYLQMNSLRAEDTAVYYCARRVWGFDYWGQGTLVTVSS
VL: B2 VL with H18R, S93V, A94Y, P96F
notes: as for B1
B5: antibody 1136/1137 (antibody, V domains shown)
VH: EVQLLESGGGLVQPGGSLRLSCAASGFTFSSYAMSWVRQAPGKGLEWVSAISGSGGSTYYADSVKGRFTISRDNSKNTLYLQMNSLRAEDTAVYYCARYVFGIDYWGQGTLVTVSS
VL: DIQMTQSPSSLSASVGDRVTITCRASQSISSYLNWYQQKPGKAPKLLIYAASSLQSGVPSRFSGSGSGTDFTLTISSLQPEDFATYYCQQAYYAGLFTFGQGTKLEIK
notes: as for B1
B6: antibody 1146/1147 (antibody, V domains shown)
VH: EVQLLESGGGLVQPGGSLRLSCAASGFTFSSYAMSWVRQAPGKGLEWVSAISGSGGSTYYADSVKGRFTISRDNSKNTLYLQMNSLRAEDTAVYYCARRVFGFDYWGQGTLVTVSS
VL: B2 VL with H18R, G92Y, S93Y, A94Y, P96F
notes: as for B1
B7: antibody 1148/1149 (antibody, V domains shown)
VH: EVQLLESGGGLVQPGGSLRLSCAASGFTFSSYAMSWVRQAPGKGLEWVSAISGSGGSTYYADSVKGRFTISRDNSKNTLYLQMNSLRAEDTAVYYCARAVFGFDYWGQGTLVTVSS
VL: B2 VL with H18R, Y91A, G92Y, S93Y, A94F, P96H
notes: as for B1

Biological target: T1, CD40hfc (R&Dsystems, USA) (human, UniProt P25942 21-193)
T1 construct: Bought reagent, amine-coupled to a CM5 chip; not shown: Fc part of the bought fusion protein
Test: SPR Biacore 3000, CD40hfc immobilized on CM5, antibody as analyte, 1:1 Langmuir
Protocol: (§1) The affinity constants of purified antibodies were assessed by surface plasmon resonance using the Biacore 3000 instrument according to manufacturer's protocols. CD40hfc (R&Dsystems, USA) was immobilized to the BIAcore sensorchip, CM5, using conventional amine coupling. Association was followed for 3 minutes and dissociation for 12 minutes. Regeneration was performed twice using 50 mM NaOH for 30 seconds. The kinetic parameters and the affinity constants were calculated using BIAevaluation 4.1 software. The CD40 antibody clones were run over the sensor at a flow rate of 30 μl/min in HBS-P (GE, BR-1003-68) at concentration ranges between 1-100 or 1-300 nM and analyzed using 1:1 Langmuir with drifting baseline.

| Binder | Kd | koff | kon |
| --- | --- | --- | --- |
| B1 | 3.4 nM | 0.0014 s⁻¹ | 400000 M⁻¹ s⁻¹ |
| B2 | 1.5 nM | 0.0034 s⁻¹ | 2.2e+06 M⁻¹ s⁻¹ |
| B3 | 2.4 nM | 0.0081 s⁻¹ | 3.4e+06 M⁻¹ s⁻¹ |
| B4 | 1.3 nM | 0.0013 s⁻¹ | 1e+06 M⁻¹ s⁻¹ |
| B5 | 11 nM | 0.0095 s⁻¹ | 870000 M⁻¹ s⁻¹ |

Biological target: T1, CD40hfc (R&Dsystems, USA)
Test: SPR Biacore 3000, CD40hfc immobilized (summary table, Example 6)
Protocol: as §1

| Binder | Kd | koff | kon |
| --- | --- | --- | --- |
| B1 | 3.4 nM | 0.0014 s⁻¹ | 400000 M⁻¹ s⁻¹ |
| B2 | 1.5 nM | 0.0034 s⁻¹ | 2.2e+06 M⁻¹ s⁻¹ |
| B3 | 2.4 nM | 0.0081 s⁻¹ | 3.4e+06 M⁻¹ s⁻¹ |
| B4 | 1.3 nM | 0.0013 s⁻¹ | 1e+06 M⁻¹ s⁻¹ |
| B5 | 11 nM | 0.0095 s⁻¹ | 900000 M⁻¹ s⁻¹ |

Biological target: T2, Fc-fused CD40 (Ancell, #504-820) (human, UniProt P25942 21-193)
T2 construct: Bought reagent; not shown: Fc part of the bought fusion protein
Test: ELISA, coated Fc-fused CD40, full IgG
Protocol: (§2) Purified full IgG molecules were analysed with ELISA. High binding flat bottom LIA plates (Greiner #655074) were coated with Fc-fused CD40 (Ancell, #504-820) at 0.05 μg/ml, and milk powder were used at 3% for blocking and at 1% for dilution. The antibodies to be tested were added in serial dilutions starting at 50 μg/ml and detection was carried out using HRP conjugated goat anti human Ig-Fc (Jackson ImmunoResearch, #109-035-098) and Super Signal Pico Chemiluminescent (ThermoScientific, #37069) was used as substrate.

| Binder | EC50 |
| --- | --- |
| B1 | 0.025 µg/mL |
| B2 | 0.041 µg/mL |
| B6 | 0.58 µg/mL |
| B3 | 0.28 µg/mL |
| B4 | 0.034 µg/mL |
| B7 | 2.2 µg/mL |
| B5 | 1.4 µg/mL |

Biological target: T3, human CD40 (human, UniProt P25942 21-277)
Test: cell-based or functional assay

| Binder | Potency B cell proliferation (EC50) |
| --- | --- |
| B1 | 1 µg/mL |
| B2 | 0.9 µg/mL |
| B6 | 3.6 µg/mL |
| B3 | 2.2 µg/mL |
| B4 | 0.7 µg/mL |
| B7 | 2.3 µg/mL |
| B5 | 1 µg/mL |

Biological target: T4, CD40 cys2A mouse: Human CD40 with mouse module A of domain 2 (62-77) (human; mouse, UniProt P25942 21-277)
T4 construct: Human/mouse chimera on FreeStyle 293-F cells; Human flanks inferred from the printed mouse range
T4 chain: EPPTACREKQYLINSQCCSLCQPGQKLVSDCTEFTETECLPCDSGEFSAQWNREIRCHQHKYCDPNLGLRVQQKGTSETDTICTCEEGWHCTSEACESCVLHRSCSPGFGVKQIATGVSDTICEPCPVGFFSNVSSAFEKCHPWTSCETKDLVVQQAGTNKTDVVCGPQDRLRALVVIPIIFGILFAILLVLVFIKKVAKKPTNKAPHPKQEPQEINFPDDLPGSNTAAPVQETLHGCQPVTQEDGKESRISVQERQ
Test: flow cytometry on 293-F cells transfected with the chimera; MFI scored + or -
Source text: (§3) Genes of CD40 human/mouse chimeras were synthesized (GenScript). The different chimeras were designed by exchanging domains or modules of the human CD40 with corresponding mouse CD40 domains or modules. The chimeras were designed after evaluation of the human and mouse sequences and 3D analysis of human CD40. The constructs were cloned into pcDNA3.1 vector (Invitrogen) using the restriction sites for NotI and HindIII. The mouse/human chimeras were transiently transfected into FreeStyle 293-F cells (Invitrogen), incubated 48 hours in FreeStyle 293 expression medium (Invitrogen) 37C, 8% CO2, 135 rpm.
(§4) Cells were analyzed with FACS Verse (BD Biosciences). Binding to the different chimeric constructs were determined with MFI to be either positive (+) or negative (−).

| Binder | binding result |
| --- | --- |
| B2 | binds |
| B3 | binds |
| B4 | no binding |

Biological target: T5, CD40 cys1B mouse: Human CD40 with mouse module B of domain 1 (38-59) (human; mouse, UniProt P25942 21-277)
T5 construct: Human/mouse chimera on FreeStyle 293-F cells; Human flanks inferred from the printed mouse range
T5 chain: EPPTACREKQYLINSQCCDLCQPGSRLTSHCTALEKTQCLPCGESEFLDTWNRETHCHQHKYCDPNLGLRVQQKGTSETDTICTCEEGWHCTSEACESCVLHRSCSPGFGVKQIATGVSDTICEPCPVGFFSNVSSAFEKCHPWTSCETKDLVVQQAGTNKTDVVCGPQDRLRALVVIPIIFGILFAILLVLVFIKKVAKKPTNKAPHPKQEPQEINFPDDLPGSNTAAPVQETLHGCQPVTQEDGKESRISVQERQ
Test: as above
Source text: as §3, §4

| Binder | binding result |
| --- | --- |
| B2 | no binding |
| B3 | no binding |
| B4 | binds |

Biological target: T6, CD40 cys3B mouse: Human CD40 with mouse module B of domain 3 (122-143) (human; mouse, UniProt P25942 21-277)
T6 construct: Human/mouse chimera on FreeStyle 293-F cells; Human flanks inferred from the printed mouse range
T6 chain: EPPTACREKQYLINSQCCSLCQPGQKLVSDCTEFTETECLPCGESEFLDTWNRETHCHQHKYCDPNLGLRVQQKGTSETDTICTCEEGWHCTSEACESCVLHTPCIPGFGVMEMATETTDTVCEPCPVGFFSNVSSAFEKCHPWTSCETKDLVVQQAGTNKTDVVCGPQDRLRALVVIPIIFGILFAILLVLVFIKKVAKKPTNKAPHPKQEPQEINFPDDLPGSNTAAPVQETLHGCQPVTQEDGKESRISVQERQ
Test: as above
Source text: as §3, §4

| Binder | binding result |
| --- | --- |
| B2 | binds |
| B3 | binds |
| B4 | binds |

Biological target: T2, Fc-fused CD40 (Ancell, #504-820)
Test: CD40 binding ELISA (summary table, Example 3)
Protocol: as §2

| Binder | EC50 |
| --- | --- |
| B1 | 0.025 µg/mL |
| B2 | 0.041 µg/mL |
| B6 | 0.58 µg/mL |
| B3 | 0.28 µg/mL |
| B4 | 0.034 µg/mL |
| B7 | 2.2 µg/mL |
| B5 | 1.4 µg/mL |

Biological target: T3, human CD40
Test: cell-based or functional assay
Remark: another data set of the same source

| Binder | B cell proliferation | B cell proliferation (see Example 3) | DC activation (index: IL-12p40 with antibody divided by IL-12p40 with isotype control) |
| --- | --- | --- | --- |
| B1 | 1 |  |  |
| B2 |  | 0.9 | 7.8 index |
| B6 |  | 3.6 |  |
| B3 |  | 2.2 | 10.8 index |
| B4 |  | 0.7 | 22.3 index |
| B7 |  | 2.3 |  |
| B5 | 1 |  |  |

Biological target: T7, murine CD40 (mouse, UniProt P27512 20-193, limits assumed)
T7 construct: How murine CD40 was presented in the assay is not described; also called mouse CD40
Test: chimeric domain mapping, flow cytometry
Source text: as §3, §4

T7 sequence (P27512 20-193 limits assumed): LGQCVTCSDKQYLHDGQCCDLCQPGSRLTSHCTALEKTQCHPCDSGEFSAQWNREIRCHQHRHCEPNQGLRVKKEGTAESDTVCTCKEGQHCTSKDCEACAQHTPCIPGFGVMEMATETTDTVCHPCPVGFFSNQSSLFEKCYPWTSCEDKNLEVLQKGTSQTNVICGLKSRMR

| Binder | binding result |
| --- | --- |
| B2 | no binding |
| B3 | no binding |
| B4 | no binding |
